According to patent publication US20060233822A1 (YANG SHENG TANG, published 2006):

Experiments:
[1] = biological target: T1, NE2 mutant 601LP (hepatitis E virus, UniProt P29326 394-600); assay: WB
T1 construct: position counted on HEV ORF2
T1 chain: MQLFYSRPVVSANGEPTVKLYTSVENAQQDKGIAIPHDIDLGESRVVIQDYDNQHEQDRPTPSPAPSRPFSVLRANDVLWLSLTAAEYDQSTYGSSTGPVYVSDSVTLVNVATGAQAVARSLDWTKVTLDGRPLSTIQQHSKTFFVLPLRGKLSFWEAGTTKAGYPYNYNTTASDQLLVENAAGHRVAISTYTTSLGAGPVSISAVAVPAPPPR

[2] = biological target: T2, NE2 mutant 601LG (hepatitis E virus, UniProt P29326 394-600); assay: WB
T2 construct: position counted on HEV ORF2
T2 chain: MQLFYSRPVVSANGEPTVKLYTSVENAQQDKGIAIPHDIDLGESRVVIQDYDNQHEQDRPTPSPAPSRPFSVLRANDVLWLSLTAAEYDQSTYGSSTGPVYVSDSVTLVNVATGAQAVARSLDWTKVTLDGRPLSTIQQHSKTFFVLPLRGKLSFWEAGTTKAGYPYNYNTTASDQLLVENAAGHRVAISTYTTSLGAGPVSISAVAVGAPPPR

[3] = biological target: T3, NE2 mutant 601LC (hepatitis E virus, UniProt P29326 394-600); assay: WB
T3 construct: position counted on HEV ORF2
T3 chain: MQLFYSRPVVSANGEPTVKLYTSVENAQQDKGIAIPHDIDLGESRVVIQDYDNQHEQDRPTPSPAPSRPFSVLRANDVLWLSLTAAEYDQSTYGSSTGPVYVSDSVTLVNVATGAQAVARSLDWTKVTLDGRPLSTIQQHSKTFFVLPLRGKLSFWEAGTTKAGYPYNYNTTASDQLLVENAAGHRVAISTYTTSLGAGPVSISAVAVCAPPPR

[4] = biological target: T4, NE2 mutant 601LQ (hepatitis E virus, UniProt P29326 394-600); assay: WB
T4 construct: position counted on HEV ORF2
T4 chain: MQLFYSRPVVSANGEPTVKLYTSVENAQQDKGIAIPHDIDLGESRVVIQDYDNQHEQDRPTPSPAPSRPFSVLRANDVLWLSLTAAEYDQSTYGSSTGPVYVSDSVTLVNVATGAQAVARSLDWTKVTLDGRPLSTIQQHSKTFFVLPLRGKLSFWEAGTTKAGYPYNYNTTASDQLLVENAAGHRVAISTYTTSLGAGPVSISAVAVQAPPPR

[5] = biological target: T5, polypeptide 239 (hepatitis E virus, UniProt P29326 368-603); assay: Western blot
T5 sequence: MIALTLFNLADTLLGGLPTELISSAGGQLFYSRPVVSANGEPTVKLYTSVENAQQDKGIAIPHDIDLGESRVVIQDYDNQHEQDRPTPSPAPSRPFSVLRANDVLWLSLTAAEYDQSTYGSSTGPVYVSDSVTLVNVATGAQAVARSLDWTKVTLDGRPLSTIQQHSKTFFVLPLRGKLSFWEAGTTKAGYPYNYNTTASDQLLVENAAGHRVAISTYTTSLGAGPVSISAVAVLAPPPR

[6] = biological target: 7-peptide TNLRLDS; assay: phage display panning on coated MAb; 1 clone
[7] = biological target: 7-peptide MLWGPSD; assay: phage display panning on coated MAb; 1 clone
[8] = biological target: 7-peptide QPATWNT; assay: phage display panning on coated MAb; 1 clone
[9] = biological target: 7-peptide GGWGPFA; assay: phage display panning on coated MAb; 1 clone
[10] = biological target: 7-peptide ALWGPTS; assay: phage display panning on coated MAb; 1 clone
[11] = biological target: 7-peptide YQDSAKT; assay: phage display panning on coated MAb; 3 clones

Measured: binding result

B1: monoclonal antibody 16D7 (antibody, V domains shown)
VH: EVQLQQSGPELVKPGASVKMSCKASGYKFTSYVMHWVKQKPGQGLEWIGYINPSNDNIKYNEKFKGKAILTLDKSSSTAYMAFSSLTSEDSAVYYCATLTGVDYWGQGTTLTVSS
VL: DVVMTQTPLSLSVTIGQPASISCKSSQSLLYRNGKIYLNWLQQRPGQAPKHLMSQVSKLDPGIPDRFSGSGSETDFTLKISRVEAEDLGVYYCLQGTHYPYTFGGGTKLEIKR
notes: also called MAb 16D7; HRP-16D7
binds: all assays above
